Test results published in paper PMC3150355, “TAT-Mediated Transduction of MafA Protein In Utero Results in Enhanced Pancreatic Insulin Expression and Changes in Islet Morphology”.

Biological target: TAT-MafA (unphosphorylated, PBS treated) (human, UniProt Q8NHW3 1-353)
Test: EMSA; unphosphorylated; basal DNA-binding activity; Pierce LightShift chemiluminescent EMSA kit; 200 fmol/ul biotin-DNA, unlabeled competitor 10 pmol/ul, 82.15 ug TAT-MafA; ERK2 or PBS 37 C 1 h, then 20 min binding; buffer, pH and binding temperature not stated
Settings: protein: recombinant; TAT PTD (11 aa) and 6xHis, pTAT-2.1 (pET28); chain copies: 2; blunt

TAT-MafA (unphosphorylated, PBS treated), sequence (Q8NHW3 whole entry): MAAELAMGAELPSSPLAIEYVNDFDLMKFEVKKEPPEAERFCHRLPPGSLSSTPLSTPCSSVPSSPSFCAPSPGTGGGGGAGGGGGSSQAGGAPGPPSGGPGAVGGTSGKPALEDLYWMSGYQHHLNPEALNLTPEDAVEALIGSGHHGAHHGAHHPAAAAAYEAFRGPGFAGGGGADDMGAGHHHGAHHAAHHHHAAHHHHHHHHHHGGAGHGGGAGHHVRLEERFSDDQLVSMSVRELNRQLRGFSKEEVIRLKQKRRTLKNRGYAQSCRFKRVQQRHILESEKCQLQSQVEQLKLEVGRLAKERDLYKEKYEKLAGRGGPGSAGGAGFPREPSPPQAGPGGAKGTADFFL

B1: insulin promoter -139 to -104 (C1 box) (dsDNA)
DNA 1: ATGGTCCGGAAATTGCAGCCTCAGCCCCCAGCCATC
DNA 2: GATGGCTGGGGGCTGAGGCTGCAATTTCCGGACCAT
binding result: binds
